Experimental findings from paper PMC13011415 are described below.

The assay deals with 1-acyl-sn-glycerol-3-phosphate acyltransferase alpha (AGPAT1), endogenous in human cells (human (endogenous in Huh7, HAP1, ERMS)) (UniProt Q99943). Nature of the assay: immunostaining of cells or tissue.
Chain of UniProt Q99943 (Q99943 27-283): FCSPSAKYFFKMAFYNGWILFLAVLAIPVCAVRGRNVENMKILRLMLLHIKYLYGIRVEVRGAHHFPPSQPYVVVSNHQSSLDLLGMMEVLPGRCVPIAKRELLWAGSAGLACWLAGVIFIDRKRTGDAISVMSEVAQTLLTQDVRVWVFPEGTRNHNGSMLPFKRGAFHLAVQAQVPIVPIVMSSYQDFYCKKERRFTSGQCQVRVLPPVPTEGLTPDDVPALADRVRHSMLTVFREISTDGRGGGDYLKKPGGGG

Consider “Chikungunya virus (CHIKV) particles, sucrose gradient-purified, strain IND-06-Guj (complex)”, for which the reduction of CHIKV binding (MIFD) in AGPAT1 KO against WT HAP1 cells was found to be 85%.
